Assay: soluble on expression in E. coli; label from the status in PepcDB or PDB records

Sequence | soluble on expression in E. coli
MQAIQNTQEIRRQADLTKAQWWLQQLCETDRMIVGRKRRDVQKLIHRLLSEPKGTSVPKSSPVNRLFPHPLSFELDPKWPAMDSFYNRISAAMRTIAPKKTASQQVVISCKQLKPAKLDMKTLRQVMEHELAELGDEKLQRMVCSFCYRAQPTHRLYTIEDVIKCQECWRGPFPSRTIFDALITDVAEKWAEKVAKRVECLYGNWDEKLTPMVRMLQNNVLLSEDIAALLRTCTDPHEFKEACEVIIITTIVFYLEYVDFRRSCEALMAIKPTVTYGQLFEIFQIYFPNRAKGIKTGDFL | not soluble
MSLTERRQATAIVRAHGHTSLARLTLLEDKSYCFSPSGESLIAFVQRGRGAIALGDPIGPARDREAIIQQFLRECQQNDWLPAFYQVLPDDLPLYQRQGLASDQIGQEAVIPLQDFSLQGKRGRGFRSTLSRLERAGYRFEVIPAAEIYPLLPELRFVSDTWLKRMKGPEKRFSVGWFDRDYLTSGSIAVVRSQDGQIQAFANWVEEFQRNELTLDLIRFLPSAESSTMEFLLVNTILAAKDRGFDSFSLGLSALSGLDQLDQPNQVEQGLDYLYRHLDRFYRFQGLHSFKEKFHPDWQPRYFVYPNLAAIPSLVVTLVRADSGDRWLDYFRANDEGHHHHHH | not soluble
MEENSIKIHKWLYPASWLYGAGVALRNKLFDWGKLQSKSFNVPIICIGNIAVGGTGKTPHTEYLIKLLHDEFQVAVLSRGYKRHTKGFVLSTAESDARSIGDEPYQIQSKFSDIRVAVDEDRCHGIERLLTLKEPPVEVILLDDAFQHRYVKAGLNILLTDYHRLFCDDTLMPAGRLRESAQGKNRAQIVIVTKCPPDIKPIDYNIITKRLNLFPYQQLYFSSFRYGNLRAVFPDCATVQERKLSSLQTEEQILLITGIASPDTIIRELEIHTRNIDLLAFSDHHNFSQRDLAQIKERFGKLRKGQRLIVTTEKDATRLICHQELDEGLKPFIYALPIEVEILQNQQDNFNQHIIGYVRENTRNGSLPERKDAHKSLEHHHHHH | soluble
MHADLVIVGAGMVGSALALALEGSGLEVLLVDGGSLDVAPFKPEAPYEPRVSALSEASRRILQRLHAWDGIVARRAEPYREMQVWDGSGTGRIGFSAASVHAEVLGHIVENRVVQDALLERLHDSTTGLLANARLEQMRHSGDDWLLTLADGRQLRAPLVVAADGANSAVRRLAGCATREWDYLHHAIVTSVRCENAHRATAWQRFTDDGPLAFLPLPDRGDEHWCSIVWSTTPEQAERLMALDEDGFRAALGEAFEQRLGAILHADRRLCIPLRQRHAKRYVEPGLALVGDAAHTIHPLAGQGVNLGFLDAAVLSEVLLHALERGERLADERVLSRFERRRMPHNLGMMTAMEGFERLFQADRLPLRWLRNAGLRLVDGHHEAKALFVRQALGLSGDLPMLARVLEHHHHHH | soluble
MGSDKIHHHHHHARPLSDVLNDVAARFQVRLKYDVDTVGRVLPYADFRIRPYSLEETLTNVLSPFDYKFVKQSDKVYKLKPYEYARRTDADGEKMLAYLSGLYSDKSQWEQRREILRKEVRQRLGLDDMLGKTVKDAKPVLSKIRKFDGYTVQNFALETLPGLYVCGSVYAPRTKGKHALIICPNGHFGQGRYRKDQQQRMATLARMGAVCVDYDLYGWGESALQVGGKAHHTADAHTIQAMNGIWILDYMLANRKDIDPACIGVNGGSGGGTQTVLLTVLDDRFTAAAPVVSLASHFDGGCPCESGKPIQLAGGGTCNAELAALFAPRPMLVVSDGGDWTATVPRLEYPYLQRIYGFYGATDKVSNVHLPQERHDFGPNKRNAVYDFFIDVFGLDRNMLDESKVTIEPEDALKSFGEKGEKLPAGALRYKE | not soluble
MSLSEAGHKFLAKLGKKRLRPGGKRATDWLIAEGGFSKEKRILEVACNRGTTAIELAQRFGCKITAVDMDAQALEVAKKSAGTAGVAHLISFERANAMKLPYQDASFDIVINEAMLTMQADQAKKKCVMEYLRVLKPGGLLLTHDVLLKEAKESIRQELSQAIHVNVGPLTQDGWEQVMIESGYCDVKALTGEMTLMKLSGMIYDEGLLGTLKICVNACKKENRKQFLTMYKMFAKNKQKLGFIAMASYKSSKREGHHHHHH | not soluble
MKPYYVTTAIAYPNAAPHVGHAYEYIATDAIARFKRLDRYDVRFLTGTDEHGLKVAQAAAAAGVPTAALARRNSDVFQRMQEALNISFDRFIRTTDADHHEASKELWRRMSAAGDIYLDNYSGWYSVRDERFFVESETQLVDGTRLTVETGTPVTWTEEQTYFFRLSAYTDKLLAHYHANPDFIAPETRRNEVISFVSGGLDDLSISRTSFDWGVQVPEHPDHVMYVWVDALTNYLTGAGFPDTDSELFRRYWPADLHMIGKDIIRFHAVYWPAFLMSAGIELPRRIFAHGFLHNRGEKMSKSVGNIVDPVALAEALGVDQVRYFLLREVPFGQDGSYSDEAIVTRINTDLANELGNLAQRSLSMVAKNLDGRVPNPGEFADADAALLATADGLLERVRGHFDAQAMHLALEAIWLMLGDANKYFSVQQPWVLRKSESEADQARFRTTLYVTCEVVRIAALLIQPVMPESAGKILDLLGQAPNQRSFAAVGVRLTPGTALPPPTGVFPRYQPPQPPEGK | not soluble
MGSDKIHHHHHHMDIDLARTFLEIARSGSFVAAAERLHLTQTAVTARIQNLEGQLGCRLFVRNRAGARLTADGEHFLGYASQLVQTWDAARRDLPLPDGFRNLLNLGGEVSLCNPLLLNWMRRLREAIPGHAVRVEIGQGADLLKQLEQGALDAALVYQPEYWPGLQVEQLLEEKLVMVRSVLSAEPYLYVDWGPDFRSQHDAALPDRAKAALACNLGPLALQYIMQNGGSGYFRTRVVSSYLDGGTLQRVEQAPEFAYPTYLVYSRERLSPTLRHAFQLLREVVREDSDWSQRWDYVI | not soluble
SYELTQPPSVSVAPGQTARISCSGDNIGGTFVSWYQQKPGQAPVLVIYDDNDRPSGIPERFSGSNSGNTATLTISGTQAEDEADYYCGTWDMVTNNVFGGGTKLTVLGQPKAAPSVTLFPPSSEELQANKATLVCLISDFYPGAVTVAWKADSSPVKAGVETTTPSKQSNNKYAASSYLSLTPEQWKSHRSYSCQVTHEGSTVEKTVAPTECS | soluble
MSLKIIPYSVNVMDEHGVIIASGEPSRLRQRHEGAILALKENRIVEIDSATANQLKGVRSGINLPISFHEQLIGVVGITGEPEEVRAYAELVKMAAELVIEHMVLIEQRQWDKRYREELINQLILRENSTESLRSMAAYLGIDLAVPRVVLIIELSQPDREALRNVMDYFENHARNHLVTFTEFNELIIIKPITLKEGKWNTRQEMGELQIFKSWAASSGFSRILVGGYFAGETGLHRSLLTARATQAMAKRQKLRSQYIFYHDHALPALLSGLSESWQVQELSRLWLQLVQHDAKGVLQQTLRTWFEHNCDLTQTAKALHIHVNTLRYRLQRCEDITHIKINELKSTLWLYIGMELQAESVSSDKLPLPGREGHHHHHH | not soluble
NYGMVPFAGIPYYACPFGRDSIITSWFLLPYYPQYAEGTLKFFAKIQGKKFNPLNEEEPGKIPHEFRFGELSHSRKMPFAPYYGTVDATPLYVILAAEYLRWTGDRELIERLKPNLTAAVEWILRRLDEGGGYIRYKGGLLANQGWKDSKEGIPTEEGTPTKPPVALVEVQGYAYKALMDAASLGLTSLDPKMLKKEAEELKKRFNKDFWCDGFYALALDGDNVPSKVVSSNMGHLLFTGIAEHQEKIAERLFEEDMFSGWGIRTLSSKEKAYNPFSYHNGSIWPHDNAVIAIGLASIGEKEKARMLAEAIFKTAKFLPNSQLPELFSGLESEYPLLCPRANAPQAWSAASVFALLTALLGLKA | not soluble
MCKLAGPQHSEIGFPISTDNASWRGPNIEAGGKSAYNNVQVGE | not soluble
MKDLGAEHLAGHEGVQLLGLLNVYLEQEERFQPREKGLSLIEATPENDNTLCPGLRNAKVEDLRSLANFFGSCTETFVLAVNILDRFLALMKVKPKHLSCIGVCSFLLAARIVEEDCNIPSTHDVIRISQCKCTASDIKRMEKIISEKLHYELEATTALNFLHLYHTIILCHTSERKEILSLDKLEAQLKACNCRLIFSKAKPSVLALCLLNLEVETLKSVELLEILLLVKKHSKINDTEFFYWRELVSKCLAEYSSPECCKPDLKKLVWIVSRRTAQNLHNSYYSVPELPTIPEGGCFDESESEDSCEDMSCGEESLSSSPPSDQECTFFFNFKVAQTLCFPSLEHHHHHH | not soluble
MSLTTRLADIAAQAGVSEATVSRVLNGKPGVAATTRQSVLAALDVLGYERPVRLRQRSEGLVGLITPELENPIFPALAQVIGQALTRQGYTPVLATQTPGGSTEDELTEMLVDRGVAGIIFVSGLHADTSADMQRYDQLRAQGVPFVLVDGFSPKVQAPFISPDDRAAMTLAVTHLVSLGHTRIGLALGPKRFVPVQRKIEGFVRSVQEQLGLSPDDVERELVQHSLYTLEGGQAAATALMDRDCTAVVCASDMMALGAIRAARQRGLDVPKDISVVGFDDSPLIAFTDPPLTTIRKPVPAMGQAAVRTLLEEIGGTPAPHSEFVFMPELVVRGSTASAPGDRNRPEGHHHHHH | soluble
MSLAARLIRSSRSNTFGIITDYVSTTPYSVDIVRGIQDWANANGKTILIANTGGSSEREVEIWKMFQSHRIDGVLYVTMYRRIVDPESGDVSIPTVMINCRPQTRELLPSIEPDDYQGARDLTRYLLERGHRRIGYIRLNPILLGAELRLDAFRRTTSEFGLTENDLSISLGMDGPVGAENNYVFAAATEMLKQDDRPTAIMSGNDEMAIQIYIAAMALGLRIPQDVSIVGFDDFRTVTMALKPELTTAALPYYDLGREGAKWLNDLIAGEKIYPGSRVVSCKLVERSSAAFGEGHHHHHH | soluble
NHPTRPCTCAPGQVEKYLSRISGPLLDRIDIQVEITPVPFEKISDSRPAESSEKIRQRVVAAREIQSKRFADYSGVHCNAQMDDKLMNRYALPDEKGLQRLRTAMERFDLSARAYGRILKVARTIADLAGSEDVGGEHIAEAIGYRNLDRENWGKA | not soluble
MSLLAEKLQINSITPHPSVEYWSVCKVEALFETPFLELVYRATQVHRKHFNPRAIQLSTLMSIKTGGCPEDCSYCPQSARYHTGVQNQQLLDVDEIVAKAKIAKARGAGRFCMGAAWRGPKPKDIEKVTEIIKAVKSLGLETCGTFGLLQDGMAEDLKEAGLDYYNHNLDTAPEHYAEVIGTRRFDDRLSTLGKVRKAGLKVCCGGIVGMNETRKERAGLIASLANLDPQPESVPINQLVKVEGTPLADAEELDWTEFVRTIAVARITMPKSYVRLSAGRSGMTEEMQAMCFMAGANSIFYGDKLLVTDNPEEDGDQLLMAKLDLEPETAENKKLEGHHHHHH | soluble
MTLELLQAQAQNCTACRLMEGRTRVVFGEGNPDAKLMIVGEGPGEEEDKTGRPFVGKAGQLLNRILEAAGIPREEVYITNIVKCRPPQNRAPLPDEAKICTDKWLLKQIELIAPQIIVPLGAVAAEFFLGEKVSITKVRGKWYEWHGIKVFPMFHPAYLLRNPSRAPGSPKHLTWLDIQEVKRALDALPPKERRPVKAVSQEPLF | soluble
MTRSEKTRHFGNQNYEKLRKICIKKKQPFVDTLFPPTNQSLFLEQRQSSDIVWKRPGELHPDPHLFVEGASPNDVTQGILGNCWFVSACSALTHNFKLLAQVIPDADDQEWSTKHAYAGIFRFRFWRFGKWVEVVIDDLLPTRDGKLLFARSKTPNEFWSALLEKAFAKLYGCYENLVGGHLSDALQDVSGGVAETLHVRKFLKDDPNDTELKLFNDLKTAFDKGALVVAAIAARTKEEIEESLDCGLVKGHAYAVSAVCTIDVTNPNERSFTSFIMGSKRKQNLIRLQNPWGEKEWNGAWSDDSPEWQNVSASQLSTMGVQPANSDSDDGDFWMPWESFVHYFTDISLCQLFNTSVFSFSRSYDEQIVFSEWTTNGKKSGAPDDRAGGCHNFKATFCNNPQYIFDIPSPNCSVMFALIQNDPSEGLKKREPFVTIGMHVMKVENNRQYRVHTAMHPIAISDYASGRSVYLHLQSLPRGRYLLIPTTFAPKEQTLFMLRVYSDEHIHFSPLTKHAPKLGLLKCKSAQSVTRLTIHGVDFNSASTGTHNVYAILKDSRKSFRTKTLSGVKSIQWDEQFLFHKSKNRQQYKIEVWEDRKMARDHLLAQSVIIALIDNENRDTTLQLTDPRGTVIGTVSVTVSAFDDPMYL | not soluble

— the DeepSol protein solubility set
